Test results from article PMC5906670, “Structural basis of epilepsy-related ligand–receptor complex LGI1–ADAM22” (Nature Communications, 2018).

B1: LGI1 (wild type, pull-down with ADAM22/23 ECD-FLAG) [human] / ADAM23 ECD-FLAG [human] (parent complex)
chain 1: KKPAKPKCPAVCTCTKDNALCENARSIPRTVPPDVISLSFVRSGFTEISEGSFLFTPSLQLLLFTSNSFDVISDDAFIGLPHLEYLFIENNNIKSISRHTFRGLKSLIHLSLANNNLQTLPKDIFKGLDSLTNVDLRGNSFNCDCKLKWLVEWLGHTNATVEDIYCEGPPEYKKRKINSLSSKDFDCIITEFAKSQDLPYQSLSIDTFSYLNDEYVVIAQPFTGKCIFLEWDHVEKTFRNYDNITGTSTVVCKPIVIETQLYVIVAQLFGGSHIYKRDSFANKFIKIQDIEILKIRKPNDIETFKIENNWYFVVADSSKAGFTTIYKWNGNGFYSHQSLHAWYRDTDVEYLEIVRTPQTLRTPHLILSSSSQRPVIYQWNKATQLFTNQTDIPNMEDVYAVKHFSVKGDVYICLTRFIGDSKVMKWGGSSFQDIQRMPSRGSMVFQPLQINNYQYAILGSDYSFTQVYNWDAEKAKFVKFQELNVQAPRSFTHVSINKRNFLFASSFKGNTQIYKHVIVDLSA
chain 2: AVNPSRGIFEEMKYLELMIVNDHKTYKKHRSSHAHTNNFAKSVVNLVDSIYKEQLNTRVVLVAVETWTEKDQIDITTNPVQMLHEFSKYRQRIKQHADAVHLISRVTFHYKRSSLSYFGGVCSRTRGVGVNEYGLPMAVAQVLSQSLAQNLGIQWEPSSRKPKCDCTESWGGCIMEETGVSHSRKFSKCSILEYRDFLQRGGGACLFNRPTKLFEPTECGNGYVEAGEECDCGFHVECYGLCCKKCSLSNGAHCSDGPCCNNTSCLFQPRGYECRDAVNECDITEYCTGDSGQCPPNLHKQDGYACNQNQGRCYNGECKTRDNQCQYIWGTKAAGSDKFCYEKLNTEGTEKGNCGKDGDRWIQCSKHDVFCGFLLCTNLTRAPRIGQLQGEIIPTSFYHQGRVIDCSGAHVVLDDDTDVGYVEDGTPCGPSMMCLDRKCLQIQALNMSSCPLDSKGKVCSGHGVCSNEATCICDFTWAGTDCSIRDPVRNLHPPKDEGPKGPSA
B2: LGI1 (wild type, pull-down with ADAM22/23 ECD-FLAG) [human] / ADAM22 ECD-FLAG [human] (parent complex)
chain 1: B1 chain 1
chain 2: SKRQLRRYPRNVEEETKYIELMIVNDHLMFKKHRLSVVHTNTYAKSVVNMADLIYKDQLKTRIVLVAMETWATDNKFAISENPLITLREFMKYRRDFIKEKSDAVHLFSGSQFESSRSGAAYIGGICSLLKGGGVNEFGKTDLMAVTLAQSLAHNIGIISDKRKLASGECKCEDTWSGCIMGDTGYYLPKKFTQCNIEEYHDFLNSGGGACLFNKPSKLLDPPECGNGFIETGEECDCGTPAECVLEGAECCKKCTLTQDSQCSDGLCCKKCKFQPMGTVCREAVNDCDIRETCSGNSSQCAPNIHKMDGYSCDGVQGICFGGRCKTRDRQCKYIWGQKVTASDKYCYEKLNIEGTEKGNCGKDKDTWIQCNKRDVLCGYLLCTNIGNIPRLGELDGEITSTLVVQQGRTLNCSGGHVKLEEDVDLGYVEDGTPCGPQMMCLEHRCLPVASFNFSTCLSSKEGTICSGNGVCSNELKCVCNRHWIGSDCNTYFPHNDDAKTGITLSG

Variants of: B1
Experiment: pull-down; anti-FLAG antibody agarose; proteins secreted from HEK293T cells; n = 4 independent experiments; read off a plot

Point of comparison: chain 1 K297A, percent of parent ~46 % of WT. Against it:
- chain 1 V250A — lower, ~20 % of WT
- chain 1 K319A — lower, ~7 % of WT
- chain 1 R296A, chain 1 K297A — lower, ~9 % of WT
- chain 1 Y399A — lower, ~4 % of WT
- chain 1 R344A — lower, ~6 % of WT
- chain 1 M443A — lower, ~10 % of WT
- chain 1 F222A — lower, ~16 % of WT
- chain 1 L268A — lower, ~14 % of WT

Variants of: B2
Experiment: as above

Point of comparison: chain 1 Y399A, percent of parent ~4 % of WT. Against it:
- chain 1 R344A — higher, ~33 % of WT
- chain 1 R296A, chain 1 K297A — higher, ~15 % of WT
- chain 1 F222A — higher, ~37 % of WT
- chain 1 V250A — higher, ~35 % of WT
- chain 1 R296A — higher, ~85 % of WT
- chain 1 K297A — higher, ~64 % of WT
- chain 1 M443A — higher, ~9 % of WT
- chain 1 L268A — higher, ~8 % of WT
